Measurements reported in US10815297B2, “Antagonists of IL17C for the treatment of inflammatory disorders” (MorphoSys AG, priority 2011, dated 2020).

Tests used:
[1] = system: BALB/c female mice, LPS-induced acute lung neutrophilia; assay: Intranasal instillation of LPS, mouse model of acute lung neutrophilia; type: in vivo; details: single treatment 5 mg/kg i.p. 24 hours before LPS instillation; BAL 24 hours after LPS
Protocol: Two independent studies were conducted with one negative mAb and two positive mAbs in the intranasal instillation of Lipopolysaccharide (LPS) mouse model of acute lung neutrophilia, a model which mimics some relevant aspects of COPD (Chronic Obstructive Pulmonary Disease). The effects were measured by Broncho Alveolar Lavage (BAL) inflammatory cell counting.
Several groups of mice were treated with different antibodies and Dexamethasone and compared to the mice subjected to LPS only.
BALB/c female mice from Harlan (France) were used in the study. Mice weight was around 20 g.
Mice were anesthetized by isoflurane inhalation. During the breathing, LPS was instilled intranasally. After 24 h, mice were anesthetized intra-peritoneally (IP) and Broncho Alveolar Lavage procedure was performed. Mice were anesthetized by injection of anaesthetic solution of 0.1 mL per 10 g of the mouse weight. The anaesthetic solution was composed of 18 ml 0.9% NaCl, 0.5 mL xylazine (5 mg/Kg) and 1.5 mL ketamine (75 mg/Kg).
The trachea was exposed through midline incision and canulated (with a mice catheter). BAL was performed twice using 1 mL of sterile PBS buffer. […] The cells were counted using a cell counter (Vet abc, France). […]
For all groups, BAL was performed 24 hours after LPS administration and cell counts were measured.
The results were analyzed using Student t-test. […]

[2] = system: TS-exposed mice (C57BL/6J), pulmonary inflammation; assay: Tobacco smoke model, cells recovered in bronchoalveolar lavage; type: in vivo, mouse
Protocol: The response consisted of significant increases in the numbers of macrophages, epithelial cells, neutrophils and lymphocytes recovered in BAL.
Vehicle (PBS), MOR12743 and MOR03207 were administered i.p., 1 h prior to TS-exposure on days 1, 4, 7 and 10 of the study. Roflumilast was administered p.o., 1 h prior to each TS-exposure.
In this exposure protocol, mice were exposed in groups of 5 in clear polycarbonate chambers (27 cm×16 cm×12 cm). The TS from ‘Marlboro 100’ cigarettes was allowed to enter the exposure chambers at a flow rate of 100 mL/min. In order to minimise any potential problems caused by repeated exposure to a high level of TS, the exposure period to TS was increased initially from 25 minutes at the start of the study (day 1) to a maximum of 45 minutes on day 3. The exposure schedule used in this study was as follows:
The trachea was cannulated using a 10 mm long Luer fitting stainless steel cannula. Phosphate buffered saline (PBS) was used as the lavage fluid. A volume of 0.4 mL was gently instilled and withdrawn 3 times using a 1 mL syringe and then placed in an Eppendorf tube and kept on ice prior to subsequent determinations.
Lavage fluid was separated from cells by centrifugation (6 min at 3400 rpm, RCF=3070×g—‘Eppendorf Mini Spin’) and the supernatant decanted and frozen for possible subsequent analysis. The cell pellet was re-suspended in a known volume of PBS and total cell numbers calculated by counting a stained (Turks stain) aliquot under a microscope using a haemocytometer.
The residual cell pellet was diluted to approximately 10^5 cells per mL. A volume of 500 μl was placed in the funnel of a cytospin slide and centrifuged for 8 min at 800 rpm, RCF=72.26×g (Shandon Cytospin 3). The slide was air-dried and stained using Wrights/Giemsa stain as per the proprietary instructions. When dried and cover-slipped, differential cell-counts were performed using light microscopy. Approximately 400 cells were counted for each slide. Cells were identified using standard morphometric techniques.
In this study, 4 groups of mice were subjected to daily TS-exposure for 11 days and were sacrificed on the 12th day, 24 h after the final TS-exposure. Three groups received either vehicle (D-PBS), MOR12743 or MOR03207, i.p., 1 h prior to TS-exposure on days 1, 4, 7 and 10 of the study. One group received Roflumilast, p.o., 1 h prior to each TS-exposure. A further group was exposed to air for 11 consecutive days and sacrificed on the 12th day, 24 h after the final air-exposure. This group received vehicle (D-PBS), i.p., 1 h prior to exposure on days 1, 4, 7 and 10 of the study. For all groups n=10.
All mice were killed on day 12, by intra-peritoneal barbiturate anaesthetic overdose, 24 h after final exposure to air or TS. A blood sample was taken over heparin from the sub-clavian vein and the plasma separated by centrifugation and stored at −40° C. A BAL was performed using 0.4 mL of phosphate buffered saline (PBS). Cells recovered from the BAL were used for the total cell and differential cell counts. The BAL supernatants and remaining cell pellet were stored at −40° C. and −80° C. respectively for possible future analysis. Following BAL, the cannula was left tied in place. The heart and lungs were removed after gently opening the thorax and cutting down either side of the sternum and ribs. The left lobe was tied off, removed, snap-frozen and stored at −80° C. The right lobe was inflated with 10% phosphate buffered formalin (PBF) to a pressure of 18 cm of PBF for 20 minutes. The trachea was then ligated below the cannula and the cannula removed. The heart, lung & trachea were immersed in PBF.
The data were therefore initially subjected to a one-way analysis of variance test (ANOVA), followed by a Bonferroni correction for multiple comparisons in order to test for statistically significant differences between treatment groups. A “p” value of <0.05 was considered to be statistically significant. […]

[3] = 5 mg/kg i.p. on days 1, 4, 7 & 10

B1: MOR12743: anti-mouse IL17C HuCAL antibody; CDRs SEQ ID NO: 31-36, VL 37, VH 38; human/mouse chimeric IgG2a (antibody, V domains shown)
VH: QVQLVQSGAEVKKPGASVKVSCKASGYTFTSNFIHWVRQAPGQGLEWMGWISPYNGDTNYAQKFQGRVTMTRDTSISTAYMELSRLRSEDTAVYYCARESVYYGSDYGYNGMDIWGQGTLVTVSS
VL: DIELTQPPSVSVSPGQTASITCSGDNLGEEYVSWYQQKPGQAPVLVIYDDTKRPSGIPERFSGSNSGNTATLTISGTQAEDEADYYCASWDLWSVEVFGGGTKLTVLGQ
modifications: mouse IgG2a constant regions; VH; VL
[1]
  inhibition of the recruitment of inflammatory cells into the BALF: inhibited significantly
[2]; [3]
  Inhibition of epithelial cells in BAL: 52%
  Inhibition of lymphocytes in BAL: 24%
  Inhibition of macrophages in BAL: 6%
  Inhibition of neutrophils in BAL: 48%
[2]; 5 mg/kg i.p. on days 1, 4, 7 & 10, 1 h prior to TS-exposure, BAL 24 h after last of 11 daily exposures
  Inhibition of total cells in BAL: 26%
